Consider one molecule from patent US20120148575A1 (published 2012).

A word on the Kd: it is the free concentration of one partner at which half of the binding sites on the other are occupied at equilibrium, for simple one-to-one binding.

This assay deals with Control. In words: SPR. For orientation: In SPR one partner is held on a chip, and binding of the other changes the refractive index at the surface.

B1: muFcgRIV (receptor)
chain: GLQKAVVNLDPKWVRVLEEDSVTLRCQGTFSPEDNSIKWFHNESLIPHQDANYVIQSARVKDSGMYRCQTALSTISDPVQLEVHMGWLLLQTTKWLFQEGDPIHLRCHSWQNRPVRKVTYLQNGKGKKYFHENSELLIPKATHNDSGSYFCRGLIGHNNKSSASFRISLGDPGSPSMFPPWHQ
Consider B1, for which the Kd is 329 nM.
